Laboratory results reported in PMC4398557, “Conserved Streptococcus pneumoniae Spirosomes Suggest a Single Type of Transformation Pilus in Competence” (PLoS Pathogens, 2015).

Key:
[1] = molecular target: the molecule itself; experiment: SEC + other: negative-stain electron microscopy
[2] = molecular target: the molecule itself; experiment: negative-stain electron microscopy; Talon eluate (TBS, 140 mM imidazole) of recombinant His-tagged protein applied at once to carbon grids, 2% uranyl acetate

B1: bifunctional acetaldehyde-alcohol dehydrogenase AdhE (Streptococcus pneumoniae), native spirosomes (enzyme)
chain: MKAMEENMADKKTVTPEEKKLVAEKHVDELVQKALVALEEMRKLNQEQVDYIVAKASVAALDAHGELALHAFEETGRGVFEDKATKNLFACEHVVNNMRHTKTVGVIEEDDVTGLTLIAEPVGVVCGITPTTNPTSTAIFKSLISLKTRNPIVFAFHPSAQESSAHAARIVRDAAIAAGAPENCVQWITQPSMEATSALMNHEGVATILATGGNAMVKAAYSCGKPALGVGAGNVPAYVEKSANIRQAAHDIVMSKSFDNGMVCASEQAVIIDKEIYDEFVAEFKSYHTYFVNKKEKALLEEFCFGVKANSKNCAGAKLNADIVGKPATWIAEQAGFTVPEGTNILAAECKEVGENEPLTREKLSPVIAVLKSESREDGITKARQMVEFNGLGHSAAIHTADEELTKEFGKAVKAIRVICNSPSTFGGIGDVYNAFLPSLTLGCGSYGRNSVGDNVSAINLLNIKKVGRRRNNMQWMKLPSKTYFERDSIQYLQKCRDVERVMIVTDHAMVELGFLDRIIEQLDLRRNKVVYQIFADVEPDPDITTVNRGTEIMRAFKPDTIIALGGGSPMDAAKVMWLFYEQPEVDFRDLVQKFMDIRKRAFKFPLLGKKTKFIAIPTTSGTGSEVTPFAVISDKANNRKYPIADYSLTPTVAIVDPALVLTVPGFVAADTGMDVLTHATEAYVSQMASDYTDGLALQAIKLVFENLESSVKNADFHSREKMHNASTIAGMAFANAFLGISHSMAHKIGAQFHTIHGRTNAILLPYVIRYNGTRPAKTATWPKYNYYRADEKYQDIARMLGLPASTPEEGVESYAKAVYELGERIGIQMNFRDQGIDEKEWKEHSRELAFLAYEDQCSPANPRLPMVDHMQEIIEDAYYGYKERPGRRK
notes: also called spirosin; 'plaited' filaments
binding result [1]: binds

B2: AdhE^S.pneumoniae, C-terminally hexahistidine-tagged, expressed in E. coli (enzyme)
chain: B1 chain
notes: not shown: His6, C-terminal, kept
binding result [2]: binds
